Consider 18 sequences from the DeepSol protein solubility set.

A short description of this data set: soluble on expression in E. coli; label from the status in PepcDB or PDB records.
On to “MALEESLIDLERFCAKAWRVYAKEDPLSHLSFNEFDYLRVIQVFPEGVRITDLADELQVTKPSASNMVVRLEKKGLVKRIACNEDARAKRVLLTEDVAEKMSLEQIVYKDISDQMMLKLNEQEAKQLQSLLNKALGN”, for which the “soluble on expression in E. coli” value is given as “not soluble”.
For “MLLKGLYKVEFETPRRKAVGVIFASDGRLHGGSSAFAYIGAYEQQGQTIQGTITARRHTSDPAIQSVFGVDEVRVDFHGSTIGDYAQVEGMAAEAPSLGFKALLTRISQ”, the “soluble on expression in E. coli” value is reported as “not soluble”.
Then “MVKMLTMDKILSKKIKVNWLGGVFWLLPNLLDLFSASKRKASVRPYQSLLELVQENFLNRYDLVHFSFNGDHDFFHFNDLQAIRSFNFTIEEEQLGAMQPDEVLLFEPVDRVTVELDQKGLSLIHSGKAFCASANYFKHWLKRVPQQDKVTLVWRKSGFELKQ”, with “soluble”; and “NSDALVSIQTSKLPKTAYTATDFIKTAQYKYNHIVSNTVYELDLFQNAVSYADFAVLELELNLANNRDQQIFDSFINPAVTAYEKLGNSLGLFSNLQLDQYVDDTHYLLGYPLLKREKTSY”, with “not soluble”; and “MSITLRTYIFLDALQPQLATFIGKTARGFLPVPGQASLWVEIAPGIAINRVTDAALKATKVQPAVQVVERAYGLLEVHHFDQGEVLAAGSTILDKLEVREEGRLKPQVMTHQIIRAVEAYQTQIINRNSQGMMILPGESLFILETQPAGYAVLAANEAEKAANVHLVNVTPYGAFGRLYLAGSEAEIDAAAEAAEAAIRSVSGVAQESFRDR”, with “not soluble”.
With “MSLNGGVTELSVWSGFTENDGKVVQSIADDFNKSQSNVKVTIEQNPWNVINDKLLSSISAGNGPDVVTYQPDGAKGFIKQGAIVSTDDFYSDSSNETSHYRKNVVKDGEVDGKHYGVPMGHAPYSVYFNKAIFDAAGITEDQYPKTWDDLAALASKLTVDKDGDGTPDQYGIALADKDAGYLPIFLQGAGTDLVVDGKANLTSKKSKDTLTWIRDNFYAKKSSPSNLSLVDAQTLFCSGKAAMFWIGPWIVNAAKEKGIETGTFEMPKGPEKQVTEVAANYWYTTSQVDGNDAKKKAAYAWMKFFNNKKNQITWAVKANYPPNRTDVTADDMKSNNFVSQISPYMDHSSLLLGSVPSGFADVQSELNALGPKISESTGDLTDILQKSNDKIQGYIEEGHHHHHH”, the “soluble on expression in E. coli” value is “soluble”.
Under “MAHHHHHHMEENNQVEKNKTNQLCFVKMLVNNLVAGSVIGKNGSIITSIENKTGCSLKLSPTNSYFPNTQERVLVLCGKQEQINNALLIILDKIRQITVQSFQDKQNMNTVPKYTCRIVIPKSAASAIIGKGGQQIKQLQDSTGAKIQISSREDGLNERIISIIGPFESISDTAIKVTNSIQNDPNLKDLLNVIYNKDTNMNGRSSLSQNFVNQVPLNGYVVPQQYGVFQHEQYMDVNMMNSLMRHSRDLFNLPCEISIQI” stands “not soluble”; under “MGGSHHHHHHGMASPLLTQQIQDEDDQYSLVASLDNVRNLSTILKAIHFREHATCFATKNGIKVTVENAKCVQANAFIQAGIFQEFKVQEESVTFRINLTVLLDCLSIFGSSPMPGTLTALRMCYQGYGYPLMLFLEEGGVVTVCKITTQEPEETLDFDFCSTNVINKIILQSEGLREAFSELDMTSEVLQITMSPDKPYFRLSTFGNAGSSHLDYPKDSDLMEAFHCNQTQVNRYKISLLKPSTKALVLSCKVSIRTDNRGFLSLQYMIRNEDGQICFVEYYCCPDEEVPESES”, “not soluble”; under “MRMAQVVLENVTKVYENKVVAVKNANLVVEDKEFVVLLGPSGCGKTTTLRMIAGLEEITDGKIYIDGKVVNDVEPKDRDIAMVFQNYALYPHMTVYENMAFGLKLRKYPKDEIDRRVREAAKILGIENLLDRKPRQLSGGQRQRVAVGRAIVRNPKVFLFDEPLSNLDAKLRVQMRSELKKLHHRLQATIIYVTHDQVEAMTMADKIVVMKDGEIQQIGTPHEIYNSPANVFVAGFIGSPPMNFVNARVVRGEGGLWIQASGFKVKVPKEFEDKLANYIDKEIIFGIRPEDIYDKLFALAPSPENTITGVVDVVEPLGSETILHVKVGDDLIVASVNPRTQAKEEQKIDLVLDMTRMHAFDKETEKAII”, “soluble”.
Under “MAHHHHHHMIEDNIDENCQIYLNPKNWLKEFENTKINENDINEVLMNYFCVHRMYDVAKEFQKESNVKPDMPINTVKIRYLIQNEIMNNKIEEAIEHINNLDKGILKKHKDLVFFLKKQQLLKLILNNNINEAIIYSQQELASYVKEKPSLINEIDDVMMLMAYQDFNNEEAKNLIQKIEKKKNTLKRIDDIILNYYNVDSESTLEYMVKNVFFTQNVLSSKYPCSVPKIKNLKSGYIEYYEKYKKKKRKSSSKKYRSKDKDKVDKHDKKNVDNIVKDFDVTNDEEYRSV” stands “not soluble”.
Then “MDGELRALLNAVLERLDVQGVYIEQMRMDIVKLQGSVKQLEDKVDRIQSDVEAMKKDMDAMKKDMDAMKKDMLGVKKDVAALKEGQVRQEKIMERLAIRSIEQEAEIDELRKEISA”, with “not soluble”; and “MKIKTLLSIITAMALLILGTEVATAQSTGVPTIDSGSPESNQPLNDTMITTKVKAELAIAEGIKSGDISVETVNGVVILTGTQPNEMLIKKAEEVAKSVKDVKQVDISGLTVNTTTAD”, with “not soluble”.
With “MSAYKTVVVGTDGSDSSMRAVDRAAQIAGADAKLIIASAYLPQHEDARAADILKDESYKVTGTAPIYEILHDAKERAHNAGAKNVEERPIVGAPVDALVNLADEEKADLLVVGNVGLSTIAGRLLGSVPANVSRRAKVDVLIVHTT”, the “soluble on expression in E. coli” value is “not soluble”.
Then “MSNTTGQWCDGNSVELLINGEDFYARVFECIRAARKEVLIETFIIFEDRIGEGLQQALLQAAANGAKVVVTVDDYGTSDLSSVFVKTMIDAGIQIQLFDPRPRFMGMRTNLFRRLHRKVVVIDGELGFIGGINYSVDHMTDTGVTAKQDYAVLVRGPIVGDIHHSALNMLSKVVRDKLPPIALKLDRAGDASMLLAER”, with “not soluble”; and “MSLTPYEPFRHLDQMRREFDRFFPDFPIDLPNRHLTLSPKMDVHETDHEVILECDIPGLESKEDLQIDVEPRSVRIEGRIKRSKEVHDERFYRREREIGHFRRVVPLPAEVAEDDIRAAYRNGVLEVRMRKRLDDRRRTIDVEFHLEHHHHHH”, with “soluble”.
Under “MNHRDKQIDSGSGSGENRRTYDCDICKRGFTNPQALGGHNNIHRRERERYPSSSSSSHSFPFSLPLPSQSPSSSTNFTNPPPYFPTIESYLHQGSQPPINPSHNTQYFGSSSSSRGGGRFAQGASHDLNLSLGLGSMNEDDDTHRSPPETGGSQPQDGDLDLDLRLGGHRHH” stands “soluble”.
Then “MVEKEETKKRARSSSSSSSSSSGSSSSGSSSSGSRSSSSSSSGRSRSRSPRRRDTRPPARGGRSRSPIRRGSPPRGARADRDRPMRPSPSPPRRRRPSPSPPRRDRRDRSGSRQRRRASPRRSPAARSASPAKRVVIKNLSRNVLKTHLEEIFSIYGAIKNVDLPPDRFHNHVHRGYGYVEYDNLEDAEKSIKHMDGGQIDGMAVHVEMTIGRQSVPFQRRSSPFRRRSPPPRDRMSPMRRGGRSPPPHRRRSPMGGRGSGANNMPLGGPNRFRRASRSRSPAGRRSRS”, with “soluble”; and “MCTQDEECSAPGGDKGKEKEEHTVVPRGKEEKEKKPGTKPSPISPAFKGTPKERPNCGKTKNETSGKKLRSNDVSPDVKDRLQLSEHGPSKTCIKDFQWLEDFITKMPCFHGFIGREDLMSVLKNVGDFLIRTSVQPNKHEVEKMKKNQADVKVLGNLSREKCAKKEKEKEEKLAGMGDVGRREFVISVYCKDKEKPATDKPQYTPIRNLVIKRDNGMVHVEPLRKFKTLTEFFGYYQKNSGICKETDFQLITPIPLSNWEFIHEDIALQQKKLGEGAFGEVRIGKMKLKSTKKTVEVAVKMLRNAEVVIREQVGELLHEARVMRMMDHKNVLRSYGIAVLKEPLYLMTEMCACGALREYLRENQETVTLAEKLFFVVGSSRGVQYLHSQKTIHRDLAVRNILLSEDRTPKISDFGLAKISERYEMKEQCKIPVRYLAPETLESFIFTTKTDVFSFGCVIWEIYENGNQPHDGKNAQTIRNLTKKNQFLKLTNSAPSELRKLIEERVFTSDPENRCSMTTIVQCAEKIEKPPVGMK”, with “not soluble”.
